The target of the experiment is heat shock protein 90 (human (endogenous in brain tissue)) (UniProt P07900). Nature of the experiment: native gel or EMSA; human brain homogenates (AD and ND) on 4–10% native gradient gel at 4 °C, immunoblot. Background: Mobility shift assays separate free from complexed probe on a gel.

For “heat shock protein 90 (from UniProt P07900 1-732) (natural protein)”, the stoichiometry N (commonly a count of units in the complex or per binding partner) came to 2.

These data come from PMC6965647.
